In patent US20190127432A1:

Molecular target: FSH receptor on CHO-FSHR cells (Homo sapiens (Human)) (UniProt P23945)
Assay: cell-based or functional assay

Chain of UniProt P23945 (P23945 18-695 limits assumed, form in doubt): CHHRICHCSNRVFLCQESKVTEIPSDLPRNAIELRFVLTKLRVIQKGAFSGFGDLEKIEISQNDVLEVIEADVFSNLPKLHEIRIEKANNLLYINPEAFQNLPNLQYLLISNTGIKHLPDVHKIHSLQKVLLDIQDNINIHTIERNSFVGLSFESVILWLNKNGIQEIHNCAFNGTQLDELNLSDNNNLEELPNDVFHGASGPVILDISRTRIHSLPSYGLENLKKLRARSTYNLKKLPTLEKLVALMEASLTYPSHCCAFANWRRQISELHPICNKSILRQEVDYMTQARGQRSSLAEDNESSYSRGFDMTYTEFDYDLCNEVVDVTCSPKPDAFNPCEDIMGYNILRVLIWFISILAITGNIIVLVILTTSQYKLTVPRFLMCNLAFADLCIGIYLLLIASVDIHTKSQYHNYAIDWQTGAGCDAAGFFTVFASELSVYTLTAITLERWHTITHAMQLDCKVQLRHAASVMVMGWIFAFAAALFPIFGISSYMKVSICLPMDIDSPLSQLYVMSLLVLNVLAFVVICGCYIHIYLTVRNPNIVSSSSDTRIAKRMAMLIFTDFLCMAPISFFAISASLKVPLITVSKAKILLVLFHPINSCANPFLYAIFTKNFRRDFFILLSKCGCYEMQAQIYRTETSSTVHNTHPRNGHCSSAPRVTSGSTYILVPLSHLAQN

Elonva (ligand) was tested, and the EC50 (ng/ml), cAMP stimulation in CHO-FSHR cells was 4.15 ng/mL, the Potency difference, cAMP stimulation in CHO-FSHR cells was 1.3 fold and the Vmax (%), cAMP stimulation in CHO-FSHR cells was 99.3%. It also gave a Vmax (pmol/ml), cAMP stimulation in CHO-FSHR cells of 293 pmol/mL.
